{"source": "paper PMC8399232", "about": "“Soy Isoflavones Inhibit Both GPIb-IX Signaling and αIIbβ3 Outside-In Signaling via 14-3-3ζ in Platelet” (Molecules, 2021)", "binders": {"B1": {"name": "14-3-3ζ (endogenous, platelets) (natural protein, mouse (endogenous in platelets), UniProt P63101 1-245, looked up)", "chain": "MDKNELVQKAKLAEQAERYDDMAACMKSVTEQGAELSNEERNLLSVAYKNVVGARRSSWRVVSSIEQKTEGAEKKQQMAREYREKIETELRDICNDVLSLLEKFLIPNASQPESKVFYLKMKGDYYRYLAEVAAGDDKKGIVDQSQQAYQEAFEISKKEMQPTHPIRLGLALNFSVFYYEILNSPEKACSLAKTAFDEAIAELDTLSEESYKDSTLIMQLLRDNLTLWTSDTQGDEAEAGEGGEN", "notes": "14-3-3ζ endogenous in platelets; platelets were prepared from mice; The methods tell of platelets prepared from wild type and GPIbα deficient mice only; the species is not repeated for the co-immunoprecipitation; source: endogenous, platelet lysate (NP-40 lysis buffer)"}}, "molecular_target": "T1, integrin β3 (endogenous, platelets) (mouse (endogenous in platelets), UniProt O54890 26-787)", "T1 construct": "integrin β3 endogenous in platelets, precipitated with an anti-integrin β3 antibody; platelets were prepared from mice; In platelets β3 stands in the integrin αIIbβ3; also called platelet integrin β3; β3 integrin; source: endogenous, platelet lysate (NP-40 lysis buffer)", "T1 sequence (looked up)": "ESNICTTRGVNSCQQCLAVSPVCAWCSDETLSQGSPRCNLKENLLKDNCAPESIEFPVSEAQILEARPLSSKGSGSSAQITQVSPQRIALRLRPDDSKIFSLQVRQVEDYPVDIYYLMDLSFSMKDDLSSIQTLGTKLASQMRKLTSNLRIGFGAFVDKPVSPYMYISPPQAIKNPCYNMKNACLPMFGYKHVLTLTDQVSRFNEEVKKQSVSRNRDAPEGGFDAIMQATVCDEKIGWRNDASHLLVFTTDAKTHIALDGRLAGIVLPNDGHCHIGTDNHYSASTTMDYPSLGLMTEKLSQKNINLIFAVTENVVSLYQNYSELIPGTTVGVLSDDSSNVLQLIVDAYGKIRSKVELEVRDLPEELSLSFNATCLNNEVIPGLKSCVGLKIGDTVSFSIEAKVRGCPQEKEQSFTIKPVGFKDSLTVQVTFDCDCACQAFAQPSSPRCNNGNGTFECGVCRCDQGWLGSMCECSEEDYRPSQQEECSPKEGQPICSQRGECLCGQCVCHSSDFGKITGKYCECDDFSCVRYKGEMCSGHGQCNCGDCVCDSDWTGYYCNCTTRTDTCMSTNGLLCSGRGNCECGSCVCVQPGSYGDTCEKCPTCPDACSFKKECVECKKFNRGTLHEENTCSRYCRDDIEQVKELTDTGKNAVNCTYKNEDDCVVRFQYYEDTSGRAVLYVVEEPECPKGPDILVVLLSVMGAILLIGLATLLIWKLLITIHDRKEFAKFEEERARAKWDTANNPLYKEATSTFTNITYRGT", "experiment": "co-IP; platelets pretreated with 0.1 % DMSO, 100 μM isoflavones or 3 μM SQ29548, stimulated with 0.04 U/mL thrombin, lysed in NP-40 lysis buffer; precipitated with integrin β3 antibody and protein A magnetic beads overnight at 4 °C; western blot", "settings": "partners not purified", "data": [{"binder": "B1", "values": [{"measurement": "fold increase of co-precipitated 14-3-3ζ on platelet activation against resting platelets", "result": 2.7, "unit": "fold"}]}]}
